Data from patent US20220412989A1, “COMPOSITIONS AND METHODS FOR DETECTING CELLS UNDERGOING FERROPTOSIS USING AN ANTIBODY” (THE TRUSTEES OF COLUMBIA UNIVERSITY IN THE CITY OF NEW YORK, priority 2020, published 2022).
“Also recorded” adds a separate entry of the source.

System: B cell lymphoma (SU-DHL-6) mouse xenograft tumor tissue
Assay: Staining of B cell lymphoma mouse xenograft tumor tissue sections
Parameters: species or system human
Settings: 40 mg/kg IKE once daily IP 14 days
Experimental: Tumor tissues were fixed in 4% paraformaldehyde (PFA) for 24 h at 4° C. followed by washing with PBS three times. The tissues were perfused in 30% sucrose for 24 h at 4° C. for cryo-protection. The samples were embedded in OCT cryostat sectioning medium, and then moved directly into a cryostat. After equilibration of temperature, frozen tumor tissues were cut into 5 μm thick sections. Tissue sections were mounted on to poly-L-lysine coated slides by placing the cold sections onto warm slides. Slides were stored at −80° C. until staining. For staining, slides were warmed to room temperature followed by washing with PBS twice. A hydrophobic barrier pen was used to draw a circle on each slide. The slides were permeabilized with PBS with 0.4% Triton X-100 (PBT) twice before non-specific-binding blocking by incubating the sections with 10% goat serum (ThermoFisher 50197Z) for 30 min at room temperature. […] All images were captured on a Zeiss LSM 800 confocal microscope at Plan-Apochromat 63x/1.40 Oil DIC objective with constant laser intensity for all analyzed samples. The intensity above threshold of the fluorescent signal of the bound antibodies was analyzed using NIH ImageJ software (ImageJ, RRID:SCR_003070). Data were expressed as fold change comparing with the vehicle. […]

B1: 3F3-FMA: murine monoclonal IgG1 raised against ferroptotic membrane fractions; antigen is human transferrin receptor protein 1 (TfR1) (antibody, V domains shown)
VH: EVLLQQSGTELVRPGALVKLSCKASGFNIQDLYIHWVKQRPEQGLEWIGWIDPETDNTIYDPKFQGKASITADTSSNTAYLQLSSLTSEDTAMYYCSTGLLQWYFDVWGAGTAVTVSS
VL: DIVMTQSPSSLAMSIGQKVTMRCKSSQSLLNSYNQKNCLAWYQQKPGQSPKLLLYFVSTRESGVPDRFIGSGSGTDFTLTISSVQAEDLADYFCQQHYSTPLTFGAGTKLELK
staining intensity, IKE-treated vs vehicle samples: did not detect its antigen; also recorded: no difference
